In paper PMC6426608:
Changes are numbered by the printed parent chain.

What was measured:
Test in all cases: EMSA
Details in all cases: EMSA: 40 ng probe in 20 ul of 10 mM Tris-HCl pH 7.4, 50 mM KCl, 5 mM MgCl2, 10% glycerol; room temperature 20 min; 6% PAGE, DNA dye
[1] = system: T1, RhpR (Pseudomonas savastanoi pv. phaseolicola 1448A), ORF:976030cf
T1 sequence: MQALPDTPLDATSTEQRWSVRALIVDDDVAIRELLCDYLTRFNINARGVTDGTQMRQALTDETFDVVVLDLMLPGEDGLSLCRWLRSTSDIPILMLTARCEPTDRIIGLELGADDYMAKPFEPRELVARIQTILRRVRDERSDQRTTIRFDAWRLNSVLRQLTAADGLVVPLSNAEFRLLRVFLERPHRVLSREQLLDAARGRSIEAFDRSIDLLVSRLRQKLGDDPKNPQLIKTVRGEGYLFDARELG

[2] = system: T2, RhpR D70A D70A (Pseudomonas savastanoi pv. phaseolicola 1448A), ORF:976030cf
T2 sequence: T1 sequence with D70A

[3] = system: T3, RhpR D70E D70E (Pseudomonas savastanoi pv. phaseolicola 1448A), ORF:976030cf
T3 sequence: T1 sequence with D70E

Sequence: TTCTCGAGTGAAATATCGACCTGAGGAAATTGCCCCTTTGATAATAGGACTCGCATGTATAATACCGGCCAAAACCGGACCAGCCGCCATTAACTTCTCTTCATGTAACGGCCATATCACCCCCGACTTGAACCGCCTTTTACTGCGTATATTTCGCGACGCTCCAGCACTGGAAACGCCCGGGATCCAA (double strand) [ccmA-ΔIR promoter]
- binding [1]: no binding

Sequence: TTCTCGAGTGAAATATCGACCTGAGGAAATTGCCCCTTTGATAATAGGACTCGCATGTATAATACCGGCCAAAACCGGACCAGCCGCCATTAACTTCTCTTCATGTAACGGCCATATCACCCCCGACTTGAACCGCCTTTTACTGCGTATGTGTCTGTTTTGGTACATTTCGCGACGCTCCAGCACTGGAAACGCCCGGGATCCAA (double strand) [ccmA promoter]
- binding [1]: binds

Sequence: TTGGATCCAACACCCTATCCACTGAAGGTCTTGGCGGGCAAAAAACAAGCCGAGGATTATACCCGAGCTATGACCCTCGAGAA (double strand) [rpoD promoter]
- binding [1]: binds

Sequence: TTGGATCCGACGGACCCTCGTGGGGTGATAGCCCAAGCATCCGCCGTGTGCGAGGTACAACCATTGACCTGGCGCAATGAAGCAGCCTGATAGCAGACCGTTGGTCGAAGACTCTTCGGTCTACGTGTGCAGGGTGGCTGTTCTCGAGAA (double strand) [adhB-ΔIR promoter]
- binding [1]: no binding

Sequence: TTGGATCCGACGGACCCTCGTGGGTAGCTCGGATGCTTGGGTGATAGCCCAAGCATCCGCCGTGTGCGAGGTACAACCATTGACCTGGCGCAATGAAGCAGCCTGATAGCAGACCGTTGGTCGAAGACTCTTCGGTCTACGTGTGCAGGGTGGCTGTTCTCGAGAA (double strand) [adhB promoter]
- binding [1]: binds

Sequence: TTGGATCCGGAAACACCAGATGCATGAGCCGACGACGGTCATCCGTAAAAACCATGACCAAAGGTAACAAGTGTGCTGCTGCATTGTTGCAAAGTTCATACCTTTTTGGCAGACCCTTTGCCTGTCAGATGACATCCATGTGACGTGGGGCACTACACGGCTGCCAGACGGGTCAGATCCAGGTGTGTCGCGAGACCGCCAAGGTGAATGAGCAGGGCTCGGCTATGCTTGCTCGCGGCGTTACATATTCTTCCCCCACTGAACAGGTGACAGTCCTCGAGAA (double strand) [PSPPH_2590 promoter]
- binding [2]: binds more weakly
- binding [3]: binds

Sequence: TTGGATCCGGAAACACCAGATGCATGAGCCGACGACGGTCATCCGTAAAAACCATGACCAAAGTGCATTGTTGCAAAGTTCATACCTTTTTGGCAGACCCTTTGCCTGTCAGATGACATCCATGTGACGTGGGGCACTACACGGCTGCCAGACGGGTCAGATCCAGGTGTGTCGCGAGACCGCCAAGGTGAATGAGCAGGGCTCGGCTATGCTTGCTCGCGGCGTTACATATTCTTCCCCCACTGAACAGGTGACAGTCCTCGAGAA (double strand) [PSPPH_2590-p-ΔIR]
- binding [3]: no binding
